Measured values reported in patent US20260295010 (published 2026).
Substitutions are numbered along the chain they refer to. Numbers in names are those of the source.

B1: IL-12p70 I90A (protein)
chain 1: MIWELKKDVYVVELDWYPDAPGEMVVLTCDTPEEDGITWTLDQSSEVLGSGKTLTIQVKEFGDAGQYTCHKGGEVLSHSLLLLHKKEDGAWSTDILKDQKEPKNKTFLRCEAKNYSGRFTCWWLTTISTDLTFSVKSSRGSSDPQGVTCGAATLSAERVRGDNKEYEYSVECQEDSACPAAEESLPIEVMVDAVHKLKYENYTSSFFIRDIIKPDPPKNLQLKPLKNSRQVEVSWEYPDTWSTPHSYFSLTFSVQVQGKSKREKKDRVFTDKTSATVICRKNASISVRAQDRYYSSSWSEWASVPCSGGGSHHHHHH
chain 2: MRNLPVATPDPGMFPSLHHSQNLLRAVSNMLQKARQTLEFYPCTSEEIDHEDITKDKTSTVEACLPLELTKNESCLNSRETSFITNGSSLASRKTSFMMALCLSSIYEDLKMYQVEFKTMNAKLLMDPKRQIFLDQNMLAVIDELMQALNFNSETVPQKSSLEEPDFYKTKIKLCILLHAFRIRAVTIDRVMSYLNAS
B2: IL-12p70 D88A (protein)
chain 1: B1 chain 1 with D88A, A90I
chain 2: B1 chain 2
B3: IL-12p70 K103A (protein)
chain 1: B1 chain 1 with A90I, K103A
chain 2: B1 chain 2
B4: IL-12p70 N201A (protein)
chain 1: B1 chain 1 with A90I, N201A
chain 2: B1 chain 2
B5: IL-12p70 D42K (protein)
chain 1: B1 chain 1 with D42K, A90I
chain 2: B1 chain 2
B6: IL-12p70 H195A (protein)
chain 1: B1 chain 1 with A90I, H195A
chain 2: B1 chain 2
B7: IL-12p70 E46K (protein)
chain 1: B1 chain 1 with E46K, A90I
chain 2: B1 chain 2
B8: IL-12p70 K196A (protein)
chain 1: B1 chain 1 with A90I, K196A
chain 2: B1 chain 2
B9: IL-12p70 D94A (protein)
chain 1: B1 chain 1 with A90I, D94A
chain 2: B1 chain 2
B10: IL-12p70 D88K (protein)
chain 1: B1 chain 1 with D88K, A90I
chain 2: B1 chain 2
B11: IL-12p70 E87K,K196E (protein)
chain 1: B1 chain 1 with E87K, A90I, K196E
chain 2: B1 chain 2
B12: IL-12p70 K103E (protein)
chain 1: B1 chain 1 with A90I, K103E
chain 2: B1 chain 2
B13: IL-12p70 W91A (protein)
chain 1: B1 chain 1 with A90I, W91A
chain 2: B1 chain 2
B14: IL-12p70 K59A (protein)
chain 1: B1 chain 1 with K59A, A90I
chain 2: B1 chain 2
B15: IL-12p70 N104A (protein)
chain 1: B1 chain 1 with A90I, N104A
chain 2: B1 chain 2
B16: IL-12p70 K105A (protein)
chain 1: B1 chain 1 with A90I, K105A
chain 2: B1 chain 2
B17: IL-12p70 K59E (protein)
chain 1: B1 chain 1 with K59E, A90I
chain 2: B1 chain 2
B18: IL-12p70 E87A (protein)
chain 1: B1 chain 1 with E87A, A90I
chain 2: B1 chain 2
B19: IL-12p70 D162K (protein)
chain 1: B1 chain 1 with A90I, D162K
chain 2: B1 chain 2
B20: IL-12p70 S45A (protein)
chain 1: B1 chain 1 with S45A, A90I
chain 2: B1 chain 2
B21: IL-12p70 P21A (protein)
chain 1: B1 chain 1 with P21A, A90I
chain 2: B1 chain 2
B22: IL-12p70 H195E (protein)
chain 1: B1 chain 1 with A90I, H195E
chain 2: B1 chain 2
B23: IL-12p70 Y17A (protein)
chain 1: B1 chain 1 with Y17A, A90I
chain 2: B1 chain 2
B24: IL-12p70 D42A (protein)
chain 1: B1 chain 1 with D42A, A90I
chain 2: B1 chain 2
B25: IL-12p70 E87K (protein)
chain 1: B1 chain 1 with E87K, A90I
chain 2: B1 chain 2
B26: IL-12p70 S44A (protein)
chain 1: B1 chain 1 with S44A, A90I
chain 2: B1 chain 2
B27: IL-12p70 E46A (protein)
chain 1: B1 chain 1 with E46A, A90I
chain 2: B1 chain 2
B28: IL-12p70 Q43A (protein)
chain 1: B1 chain 1 with Q43A, A90I
chain 2: B1 chain 2
B29: IL-12p70 I278Y (protein)
chain 1: B1 chain 1 with A90I, I278Y
chain 2: B1 chain 2
B30: IL-12p70 D162A (protein)
chain 1: B1 chain 1 with A90I, D162A
chain 2: B1 chain 2

Molecular target: T1, IL-12RB2-hFc (human, UniProt Q99665)
T1 chain: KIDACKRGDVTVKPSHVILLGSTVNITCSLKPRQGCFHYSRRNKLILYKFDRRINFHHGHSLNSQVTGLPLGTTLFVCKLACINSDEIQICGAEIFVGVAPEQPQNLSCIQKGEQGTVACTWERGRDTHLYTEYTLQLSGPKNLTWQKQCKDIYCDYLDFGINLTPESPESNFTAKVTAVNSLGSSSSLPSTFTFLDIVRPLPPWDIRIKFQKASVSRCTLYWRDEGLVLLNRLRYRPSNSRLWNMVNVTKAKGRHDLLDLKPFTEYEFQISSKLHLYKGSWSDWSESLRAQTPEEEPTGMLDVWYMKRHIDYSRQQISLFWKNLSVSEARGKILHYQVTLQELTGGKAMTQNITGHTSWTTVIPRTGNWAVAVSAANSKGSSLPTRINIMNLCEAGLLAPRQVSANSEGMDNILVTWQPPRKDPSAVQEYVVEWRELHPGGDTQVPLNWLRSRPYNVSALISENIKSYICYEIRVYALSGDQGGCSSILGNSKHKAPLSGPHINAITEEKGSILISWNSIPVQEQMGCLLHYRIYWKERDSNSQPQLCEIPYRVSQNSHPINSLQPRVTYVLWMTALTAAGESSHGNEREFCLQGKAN
Assay: SPR, 25C

Row | Binder | Kd [pM]
1 | B1 | 350
2 | B2 | 380
3 | B3 | 330
4 | B4 | 500
5 | B5 | 450
6 | B6 | 540
7 | B7 | 520
8 | B8 | 580
9 | B9 | 430
10 | B10 | 310
11 | B11 | 490
12 | B12 | 340
13 | B13 | 530
14 | B14 | 2100
15 | B15 | 390
16 | B16 | 340
17 | B17 | 490

molecular target: IL-12RB1-hFc (human, UniProt P42701); assay: SPR, 25C

Row | Binder | Kd [pM]
18 | B1 | 60
19 | B18 | 40
20 | B19 | 70
21 | B20 | 40
22 | B21 | 60
23 | B2 | 30
24 | B22 | 60
25 | B3 | 40
26 | B4 | 40
27 | B23 | 70
28 | B5 | 30
29 | B24 | 70
30 | B25 | 110
31 | B26 | 50
32 | B6 | 130
33 | B7 | 40
34 | B27 | 60
35 | B8 | 40
36 | B9 | 690
37 | B10 | 20
38 | B28 | 30
39 | B11 | 240
40 | B29 | 40
41 | B12 | 110
42 | B13 | 70
43 | B14 | 70
44 | B15 | 50
45 | B30 | 50
46 | B16 | 60
47 | B17 | 70
